The nanobody polyreactivity screen of Harvey et al. (2022)

Test: yeast display, Sf9 membrane polyspecificity reagent, FACS + sequencing; frameworks hold sequencing errors
How it was run: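 A nanobody's polyreactivity label depends on the gate it was sorted from. Yeast display cells were stained with 10% biotinylated, detergent-solubilized Sf9 membrane reagent for 1 hour at 4 °C, enriched on streptavidin microbeads and sorted by FACS. The low and high (top ~1%) gates were set on anti-HA fluorescence for expression and streptavidin fluorescence for reagent binding.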

Row | Sequence | polyreactivity (PSR sort gate)
1 | QVQLVESGGGLVQAGGSLRLSCAASGRTFDSNAMGLYRQAPGKERELVAAISYGGGTTHYADSVKGRFTISRDNAKNTVYLQMNSLKPEDTAVYYCAADPEHQWESVTIGEYDYWGQGTQVTVSS | low polyreactivity
2 | QVQLVESGGGLVQAGGSLRLSCAASGRTFDSNAMGWYRQAPGKERELVAGISESGGSTYYADSVKGRFTISRDNAKNTVYLQMNSLKPEDTAVYYCAYSGITVYYHRAVDFIVSYDYWGQGTQVTVSS | low polyreactivity
3 | QVQLVESGGGLVQAGGSLRLSCAASGRTFDSYTMGWYRQAPGKERELVADITFTGGSTYYADSVKGRFTISRDNAKNTVYLQMNSLKPDDTAVYYCNADREYKWYFRYDYWGQGTQVTVSS | low polyreactivity
4 | QVQLVESGGGLVQAGGSLRLSCAASGRTFDTNAMGWYRQAPGKERELVAVITARGGNTSYADSVKGRFTISRENAKNTVSLQMNSLKPEDTAVYYCAARVYRAPWTYEEGNYWGQGTQVTVSS | low polyreactivity
5 | QVQLVESGGGLVQAGGSLRLSCAASGRTFDVYAMGWYRQAPGKERELVATISYRSARTYYADSVKGRFTISRDNAKNTVYLQMNSLKPEDTAVYYCAAYFETWHGVGYWGQGTQVTVSS | high polyreactivity
6 | QVQLVESGGGLVQAGGSLRLSCAASGRTFDVYAMGWYRQAPGKERELVAVIRGRAGSTYYADSVKGRFTISRDNAKNTVYLQMNSLKPEDTAVYYCAAAKYVRRGLRAWRGDEYDYWGQGTQVTVSS | high polyreactivity
7 | QVQLVESGGGLVQAGGSLRLSCAASGRTFDVYAMGWYRQPPGKESELVATISYRSARTYSADSVKGRFTISRDNAKNTVYLQMNSLKPEDTAVYYCAARVGARVSQPRRHGRFNYWGQGTQVTVSS | high polyreactivity
8 | QVQLVESGGGLVQAGGSLRLSCAASGRTFDWYVMGWYRQAPGKERELVATITRDGSTNYADSVKGRFTISRDNAKNTVYLQMNSLKPEDTAVYYCAATVPPLVGYDYWGQGTQVTVSS | low polyreactivity
9 | QVQLVESGGGLVQAGGSLRLSCAASGRTFEDNAMGWYRQAPGKERELVAAISSDGSTNYADSVKGRFTISRDNAKNTVYLQMNSLKPEDTAVYYCNATVYWPYDWRTSDYWGQGTQVTVSS | low polyreactivity
10 | QVQLVESGGGLVQAGGSLRLSCAASGRTFEGYAMGWYRQAPGKERELVAAISGSSGSTYYADSVKGRFTISRDNAKNTVYLQMNSLKPEDTAVYYCNADYDWPGGSDYWGQGTQVTVSS | low polyreactivity
11 | QVQLVESGGGLVQAGGSLRLSCAASGRTFEHYSMGWYRQAPGKEREFVAVIDSSDGSTYYADSVKGRFTISRDNAKNTVYLQMNSLKPEDTAVYYCLGGYYYLQYDYWGQGTQVTVSS | low polyreactivity
12 | QVQLVESGGGLVQAGGSLRLSCAASGRTFEHYVMGWYRQAPGKERELVAAISNSGDTTFYADSVKGRFTISRDNAKNTVYFQMNSLKPEDTAVYYCNADSYWHWGEWLYAPYDYWGQGTQVTVSS | low polyreactivity
13 | QVQLVESGGGLVQAGGSLRLSCAASGRTFEINAMGWYRQAPGKERELVAAITVSGGSTYYADSVKGRFTISRDNAKNTVYLQMNSLKPEDTAVYYCAVEIDYGQGKEVNSWGQGTQVTVSS | low polyreactivity
14 | QVQLVESGGGLVQAGGSLRLSCAASGRTFENYAMGWYRQAPGKERELVAAISKSGGSTYYADSVKGRFTISRDNAKNTVYLQMNSLKPEDTAVYYCAARLPGYYGIGDYWGQGTQVTVSS | high polyreactivity
15 | QVQLVESGGGLVQAGGSLRLSCAASGRTFERYAMGWYRQAPGKERELVAAISSGGSTNYADSVKGRFTISRDNAKNTVYLQMNSLKPEDTAVYYCNVDWAVKDPSYVSQGEGDYWGQGTQVTVSS | low polyreactivity
16 | QVQLVESGGGLVQAGGSLRLSCAASGRTFERYAMGWYRQAPGKERELVAAITSGGSTYYADSVKGRFTISRDNAKNTVYLQMNSLKPEDTAVYYCATSNWWGYDYWGQGTQVTVSS | high polyreactivity
17 | QVQLVESGGGLVQAGGSLRLSCAASGRTFETNAMGWYRQAPGKERELVAAISRSGGSTRYADSVKGRFTISRDNAKNTVYLQMNSLKPEDTAVYYCAAETWYRGYKFDYWGQGTQVTVSS | high polyreactivity
18 | QVQLVESGGGLVQAGGSLRLSCAASGRTFEWYALGWYRQAPGKERELVAAIRSGGGTNYADSVKGRFTISPDNAKNTVYLQMNSLKPEDTAVYYCAKEWAGGLYDYWGQGTQVTVTS | low polyreactivity
19 | QVQLVESGGGLVQAGGSLRLSCAASGRTFFDYAMGWYRQAPGKERELVAAINWSGGRTYYADSVKGRFTISRDNAKNTVYLQMNTLKPEDTAVYYCAKPFSSNSWSHGYWGQGTQVTVSS | low polyreactivity
20 | QVQLVESGGGLVQAGGSLRLSCAASGRTFFDYTMGWYRPAPGKERELVAAITGGDGSTYYADSVKGRFTISRDNAKNTVYLQMNSLKPEDTAVYYCAASVWYNPMDYWGQVTQVTVSS | low polyreactivity
21 | QVQLVESGGGLVQAGGSLRLSCAASGRTFFEYAMGWYRQAPGKEMDLVAIITNGATTNYADSVKGRFTISRDNAKNTVYLQMNSLKPEDTAVYYCAVAKWQPRRRKYYYWGQGTQVTVSS | high polyreactivity
22 | QVQLVESGGGLVQAGGSLRLSCAASGRTFFGYAMGWYRQAPGKERELVATISGSGASTYYADSVKGRFTISRDNAKNTVYLQMNSLKPEDTAVYYCAARYVTTRHSRYYYWGQGTQVTVSS | high polyreactivity

Row | Sequence | polyreactivity (PSR sort gate)
23 | QVQLVESGGGLVQAGGSLRLSCAASGRTFFIYAMGWYRQAPGKERELVAAIRWRGGSTYYADSVKGRFTISRDNAKNTVYLQMNSLKPEDTAVYYCAASTRQARYEDYYWGQGTQVTVSS | high polyreactivity
24 | QVQLVESGGGLVQAGGSLRLSCAASGRTFFIYAMGWYRQAPGKERELVAAISNGGSTNYADSVKGRFTISRDNAKNPVYLQLNSLKPEDTAVYYCAAQYIGNLRGVFHYEFDWGQGTQVSVSS | high polyreactivity
25 | QVQLVESGGGLVQAGGSLRLSCAASGRTFFLNTMGWYRQAPGKERELGAAINWSDGGTYYADSVKGRFTISRDIAKNTVYLQMNSLKPEDTAVYYCAADVYWYYGAPELWYRFDYWGQGTQVTVSS | low polyreactivity
26 | QVQLVESGGGLVQAGGSLRLSCAASGRTFFMYAMGRYRQAPGKERELVAAISWGGVSTYYADSVKGRFTISRDNAKNTVYLQMNSLKPEDTAVYYCNAEYYYPRGRYWYDYWGQGTQVTVSS | high polyreactivity
27 | QVQLVESGGGLVQAGGSLRLSCAASGRTFFPNAMGWSRQAPGKERELVASITSRGGGTYYADSVKGRFTISRDNAKKTVYLQMNSLKPEDTAVYYCAADRYYFSPGYNWWSEGYDYWGQGTQVTVSS | low polyreactivity
28 | QVQLVESGGGLVQAGGSLRLSCAASGRTFFPNAMGWYRPAPAKERELVAAITNGDSTHYADSVKGRFTISRDNAKNTVYLQMNSLKPEDTAVYYCAAEDHYEGYGGYYWGQGTQVTVSS | low polyreactivity
29 | QVQLVESGGGLVQAGGSLRLSCAASGRTFFRNAMGWDRQEPGSERELVAGISRSGGSTYYADSVKGRFTISRDNAKNTGYLQMNSLKPEDTAVYYCAAALYPYPGYEYWGQGTQVTVSS | high polyreactivity
30 | QVQLVESGGGLVQAGGSLRLSCAASGRTFFRNAMGWYRQAPGKERELVAAISSSGGSTYADSVKGRFTISRDNAKNTVYLQMNSLKPEDTAVYYCAATVRGKRSTYDYWGQGTQVTVSS | high polyreactivity
31 | QVQLVESGGGLVQAGGSLRLSCAASGRTFFRYAMGWYRQAPGKERELVAAITRGGSTNYADSVKGRFTISRDNAKNTVYLQMNSLKPEDTAVYYCAKTTFSYRGHYYWGQGTQVTVSS | high polyreactivity
32 | QVQLVESGGGLVQAGGSLRLSCAASGRTFFSNAMGWYRPAPGKERELVAAISNGDNTYYADSVKGRFTISRDNAKNTVYLQMNSLKPEDTAVYYCAADQYWSWIYYPVVEYDYWGQGTQVTVSS | low polyreactivity
33 | QVQLVESGGGLVQAGGSLRLSCAASGRTFFSYAMGWYRQAPGKEMELVAAISGSGGSTYYADSVKGRFTISRDNAKNTVYLQMNSLKPEDTAVYYCNAYQTTRGLDYWGQGTQVTVSS | low polyreactivity
34 | QVQLVESGGGLVQAGGSLRLSCAASGRTFFVNAMGWYRQAPGKERELVATITFSGDSTYYADSVKGRFTISRDNAKNTVYLQMNSLKPEDTAVYYCAVRWPSARIPVKLDYWGQGTQVTVSS | high polyreactivity
35 | QVQLVESGGGLVQAGGSLRLSCAASGRTFFVYAMGWYRQAPGKERELVASIRWRGSTYYADSVKGRFTISRDNAKNTVYLKMNSLKPEDTAVYYCAARYPYELGFDYWGQGTQVTVSS | low polyreactivity
36 | QVQLVESGGGLVQAGGSLRLSCAASGRTFFVYAMGWYRQAPGKERELVASITLSRGSTYYADSVKGRFTISRDNAKNTCYLQMNSLKPEDTAVYYCSKGWSRDNDREREDEYWGQGTQVTVSS | low polyreactivity
37 | QVQLVESGGGLVQAGGSLRLSCAASGRTFFWYAMGWYRQAPGKEREFVAAITWRTGSTYYADSVKGRFTISRDNAKNTVYLQMNSLKPEDTAVYYCAAEYPWSYATYYYWGQGTQVTVSS | high polyreactivity
38 | QVQLVESGGGLVQAGGSLRLSCAASGRTFFYYAMGWYRQAPGKERELFATITKRGGSTYYADSVKGRFTISRDNAKNTVYLQMNSLKPEDTAVYYCAATYYRQGRRYLGYDYWGQGTQVTVSS | high polyreactivity
39 | QVQLVESGGGLVQAGGSLRLSCAASGRTFFYYAMGWYRQAPGKERELVAAISTNGGSTYYADSVKGRFTISRDNAKNTVYLQMNSMKPDDTAVYYCNTYAKPHRSGGGLGGHYYWGQGTQVTVSS | low polyreactivity
40 | QVQLVESGGGLVQAGGSLRLSCAASGRTFFYYSMGWYRQAPGKERELVATITKRGGSTYYADSVKGRFTISRDNAKNTVYLQMNSLKPEDTAVYYCNATLGRTTAVFKYYWGQGTQVTVSS | high polyreactivity
41 | QVQLVESGGGLVQAGGSLRLSCAASGRTFGANAMGWYRQAPGKERELVAGITSSGGSTSYADSVKGRFTISRDNAKNTVYLQMNSLKPEDTAVYYCAKDVYQHIFDVILGGYDSWGQGTQVTVSS | low polyreactivity
42 | QVQLVESGGGLVQAGGSLRLSCAASGRTFGFNVMGRYRQAPGKERELVAAISWSGGSTYYADSVKGRFTISRDNAKNTVYLQMTSLKPEDTAVYYCNKRYVHRYGYWGQGTQVTVSS | low polyreactivity
43 | QVQLVESGGGLVQAGGSLRLSCAASGRTFGGNAMGWYRQAPGKERELVAAISLSGGTTYYADSVKGRFTISRDNAKNTVYLQMHSLKPEDTAVYYCAARFKSVDYVQYYYWGQGTQVTVSS | low polyreactivity
